Here are results for 41 sequences from the nanobody polyreactivity screen of Harvey et al. (2022).

The nature of this data set: yeast display, Sf9 membrane polyspecificity reagent, FACS + sequencing; frameworks hold sequencing errors. Summed up:
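Polyreactivity labels are assigned by the sorting gate from which each nanobody was recovered. The gates were low and high (top ~1%), set on anti-HA fluorescence for expression and streptavidin fluorescence for reagent binding. Before sorting, galactose-induced (36–48 hours) yeast display cells were stained for 1 hour at 4 °C with 10% biotinylated, detergent-solubilized Sf9 membrane reagent.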
Turning to “QVQLVESGGGLVQAGGSLRLSCAASGITFYRNAMGWYRQAPGKEMELVAAITWNGGRTYYADSVKGRFTISRDNAKNTVYLQMNSLKPEDTAVYYCAADSGTRNLASYRYYYWGQATQVTVSS”, the “polyreactivity (PSR sort gate)” value is recorded as “low polyreactivity”.
The entry for “QVQLVESGGGLVQAGGSLRLSCAASGITIKAYAMGWYRQAPGKERELVAAISGSGGSTYYADSVEGRFTISRDNAKNTVYLQMNSLKPEDTAVYYCAARAVSLTGYRFGYWGQGTQVTVSS” is “high polyreactivity”; for “QVQLVESGGGLVQAGGSLRLSCAASGSIRYYAMGWYIQAPGKERELVAAISSRGTNTYYADSVKGRFTISRDNAKNTVYLQMNSLKPEDTAVYYCNAVVGLGYNYWGQGTQVTVSS” it is “high polyreactivity”; for “QVQLVESGGGLVQAGGSLRLSCAASGLTFWFYAMGWYRQAPGKERELVASISRGGRTYYADSVKGRFTISRDNAKNTVYLQMNSLKPEDTAVYYCIADELYYEYKDYDYWGQGTQVTVSS” it is “low polyreactivity”.
The entry for “QVQLVESGGGLVQAGGSLRLSCAASGFTFKKYAMGWYRQAPGKERELVASITWSGGSTSYADSVKGRFTISRDNAKNTVYLQMNSRKPEDTAVYYCDAATFVYRLRYNRFDYWGQGTQVTVSS” is “high polyreactivity”; for “QVQLVESGGGLVQAGGSLRLSCAASGRIFPAYVMGWYRQAHGKERELVATIDNGGGTYYADSVKGRFTISRDNAKNTVYLQMNSLKPEDTAVYYCARDRHVRWGLKMDYSGQGTQVTVSS” it is “low polyreactivity”; for “QVQLVESGGGLVQAGGSLRLSCAASGRTFFYNAMGWYRQAPGKERELVAAISGRGGRTYYADSVKGRFTISRDNAKNTVHLQMNSLKPEDTAVYYCAADAGPLRYDYWGQGTQVTVSS” it is “high polyreactivity”.
Take “QVQLVESGGGLVQAGGSLRLSCAASGSIFGIYTMGWYRQAPGKERELVAAINSGGSTNYADSVKGRFTISRDNAKNTVYLQMNSLKPEDTAVYYCNAYIHPPGPRVYSREYDYWGHGTQVTVSS”: the “polyreactivity (PSR sort gate)” value is recorded as “low polyreactivity”.
The result for “QVQLVESGGGLVQAGGSLRLSCAASGSTFYGYTMGWYRQAPGKERELVAAITSGDSTYYADSVKGRFTISRDNAKNTVYLQINSLKPEDTAVYYCATDWDVEYYWTEYYYWGQGTQVTVSS” reads “high polyreactivity”; that for “QVHLVESGGGLVQAGGSHSLSCAASGITFPLYVMGSYRQAPGKERELVAAISASGGSTYADSVKGRFTISRDNAKNTVYLQMNSLKPEDTAVYYCNAAVYVGYEYDYWGLGTQVTVSS”, “low polyreactivity”; that for “QVQLVESGGGLVQAGGSLRLSCAASGSIFYVYAMGWYRQAPGKERELVATISSSAGSTYYADSVKGRFTISRDNAKNTVYLQMNSLKPEDTAVYYCAVRQIYQTSDHRLQYDYWGQGTQVTVSS”, “low polyreactivity”.
The entry for “QVQLVESGGGLVQAGGSLRLSCAASGVIFRRYAMGWYREAPGKERELVAAMSSSGGRTTYADSVNGRFTISRDNAKNTVYIQMNSLKPEDTAVYYCNADLWPGNHDGYWGQGTQVTVSS” is “low polyreactivity”.
The result for “QFQLVESGRGLVQAGGSLRLSCAASGSTFSANAMGWYRQAPGKERELVAAISRSGTRTYYADSVKGRFTISRDNAKNTVYLQMNSLKPEDTAVYYCAAYVYQYGYDYWGQGTQVTVSS” reads “high polyreactivity”; that for “QVQLVESGGGLVQAGGSLRLSCAASGITFPANARGWYRPAPGKERELVAAISSSGDSTYYADSVKGRFTISRDNAKNTVYFQMNILKPEDTAVYYCAAKDYVWGQGTQVTVSS”, “low polyreactivity”.
As to “QVQLVESGGGLVQAGGSLRLSCAASGRTFNPYAMGWYRQAPGKERELVAVISYIGGSTYADSVKGRFTISRDNEKNTVYLQMNSLKPEDTAVYYCNRATFGQWGCDYWGQGTQVTVSS”, the “polyreactivity (PSR sort gate)” value is “high polyreactivity”.
Take “QVQLVESGGGLVQAGGSLRISCAASGSTVRYYAMGWNRQAHGKERHLVARNTSRAGRTYYADSVKGRFTISRDNAKNTVYLQMNSLKPEDTAVYYCAADQSGFRWKWYIRYDYWGQGTQVTVSS”: the “polyreactivity (PSR sort gate)” value is “high polyreactivity”.
The result for “QVQLVESGGGLVQAGGSLRLSCAASGSTFGDYAMGWYRQAPGKERELVAAISSSGGSTYYADSVKGRFTISRDNAKNTVYLQMNSLKPEDTAVYYCNADRFLYYARTYWYFWFGYWGQGTQVTVSS” reads “low polyreactivity”; that for “QVQLVESGGCIVQAGGSLRFSCAASGFTFNRYAMGWYRQAPGKERELVAAITRRGGSTYYADSVKGRFTISRDNAKNTVYFQMNSLKPEDTAVYYCNVDFQAYGIPMDYWGQGTQVNVSS”, “high polyreactivity”.
The result for “QVQLVESGGGLVHAGGSLRLSCAASGSIFGVNMGWYRQAPGKERELVASITSGGSTNYADSVKGRFTISRDNAKNTVYLQMNSLKPEDTAVYYCAARAERVREYNYWGQGTQVTVSS” reads “low polyreactivity”; that for “QVQLVESGGGLVQAGGSLRLSCAASGNIFRPYTMGWNRQEPGKERELVARISSGGSTNYADSVKGRFTISRDNAKNTVYFQMNSLKPEDTAVYYCAKRYGTVHSRYGYWGQGTQVTVSS”, “high polyreactivity”.
The result for “QVQLVESGGGLVQAGGSLRLTCAASGSTFWAYAMGWYRQAPGKERELVAAITTGGGRTFYADSVKGRFTISRDNAKNTVYLQMNSLIPEDTAVYYCAAVSQSYRMYYWGQGTQVTVSS” reads “low polyreactivity”; that for “QVQLVESGGGLVQAGGSLRLSCAASGFAFSYYAMGWYRPAPGKEREFVASIDWSGGSTYYADSVKGRFTISRDNAKNTVYLQMTSLKPEDTAVYYCAAELDYFPGYDYWGQGTQVTVSS”, “low polyreactivity”; that for “QVQLVESGGGLVQAGGSLRLSCAASGGILDTYAMGWDRQAPGKERELVAAITSGGNTNYADSVKGRFTISRDNAKNTFYLQMNSLKPEDTAVYFCNVVSWYYFFRPWEYDYWGQGTQVTVSS”, “low polyreactivity”.
For “QVQLVESGGGLVQAGGSLRLSCAASGSTFGSYAMGWYRQAPGKERELVASISSRGGSTYYADSVKGRFTISRDNAKNTVYLQMNSLKPEDTAVYYCPATRYSAYSRGKYNFWGQGTQVTVSS”, the “polyreactivity (PSR sort gate)” value is given as “high polyreactivity”.
The entry for “QVQLVESGGGLVQAGGSLRLSCAASGIIFTHNAMGWYRQAPGKERELVAAISWSGGSTYYADSVKGRFTISRDNAKNTVYLQMNSLKPEDTAVYYCNAKFKQSYAQVAKFNSWGQGTQVTVSS” is “low polyreactivity”.
The entry for “QVQLVESGGGLVQAGGSLRLSCAASGSIFAPYAMGWTRQAPGKERELVASISVRSGSTHYADSVKGRFTISRDNAKNTVYLQMNCLNPEDTAVYYCNARTYDYSWVWESRWWYYYWGQGTQVTVSS” is “high polyreactivity”.
The entry for “QVQHVESGGGLVQAGGSLRLSCAASGITFVDNAMGWYRQAPGKEREWVAVISSSGGSTYYADSVKGRFTISRDNAKNSVYLQMNSLKPEDTAVYYCAARNRFYRRPYDYWGQGTQVTVSS” is “high polyreactivity”; for “QVQLVESGGGLDQAGGSLRLSCAASGSTFYAYAMGWYRQAPGKERELVAANSSDGTNYADSVKGRFTLSRDNAKNTVYLQMNSLKPEDTAVYYCAKDSVWGAKNLTSYKYYYWGQGTQVTVSS” it is “low polyreactivity”; for “QVQLVESGGGLVQAGGSLRLSCAASGSTFYRNAMGWYRQAPGKERELVAGISWRGGSTYYADSVKGRFTISRDNAKNTVYLQMNSLKPEDTAVYYCNTLGAGGYSSPADYYYWGQGTQVTVSS” it is “high polyreactivity”.
In the case of “QVQLHESGGGLVQAGGSLRLSCAASGSISAVGAMGWNRQPPGKEREFAASVNWGTNTNYADSVKGRFTFSRDNAKNTLYLQMNSLKPEDTGVYYCAVLPDWETRHDYWGHGTQVTVSS”, the “polyreactivity (PSR sort gate)” value is given as “low polyreactivity”.
Consider “QVQLVESGGGLVQAGGSLLLSCAASGIIFRYNTMGLYRQAPGKERELVAAIRTTGGSTNYADSVKGRFTISRDNAKNTVYLQMNSLKPEDTAVYYCNKGVSSRAFDYWGQGTQVTVSS”, for which the “polyreactivity (PSR sort gate)” value is given as “low polyreactivity”.
The result for “QVQLVESGGGLVQAGGRLRLSCAASGRTFFRYVMGWYRQAPGKERELVAAISRSGGSTYYADSVKGRFTISRDNAKNTVYLQMNSLKPEATAVFYCNTVARSTVVPTEFDYWGQGTQVTVSS” reads “high polyreactivity”; that for “PVQLVESGGGLVQAGGSLRLSCADSGNIFTYNAMGWSRPEPGTERELVAGITSAGGTYYADSVKGRFTISRDNAKNSVYLQMNSLKPEDTAVYYWNVDYDNDTVRGDKIGYSYEYWGHGTQVTVSS”, “low polyreactivity”; that for “QVQLVESGGGLVQAGGSIRLSCAASGRIFHLYAMGWYRQAPGKERELVAAISRGGDTYYADSVKGRFTISRDNAKNTVYLQMYSLKPEDTAVYYCAAGRWVYTVGYYPVGYYYWGQGTQVTVSS”, “high polyreactivity”.
The entry for “QVQLVESGGGLVQAGGSLRLSCAASGRIFGQYAMGWYRQAPGKERELVAAISWRGGTTYYADSVKGRITISRDKAKNTVYLQMNSLKPVDTAVYYCNADVWVYPYDYWGQGTQVTVSS” is “low polyreactivity”; for “QVQLVESGGGLVQAGGSLRLSCAASGITFAYYAKAWYRQAPGKERELVAAINWSGGSTYYADSVKGRFTISRDNAKNTVYLQMNSLKPEDTAVYYCNAVPRRGYSRRDYWGQGTQVTVSS” it is “high polyreactivity”.
The entry for “QVQLVESGGGLVQAGGSLRLSCAASGFILNAYTMGWYRQAPGKERELVATITINGGSTYYADSVKGRFTISRDNAKNTVYLQMNSLKPEDTPVYYCNADYWYKYDYWGQGTQVTVSS” is “low polyreactivity”; for “QVQLVESGGGLVQAGGTLRLSCAASGYTFPLYAMGWYRQAPVKERELVADINIGGASTYYADSVKGRFTISRDNATNTVYLQMNSLKPEDTAVYDCAKEYYDGYFPTFDYDYFGQGTQVTVSS” it is “low polyreactivity”; for “HVQLEDSGGGLVQAGGRLRITCAASGRSSETNDMGWYRQAPGKERELVAAISSSGGSTYYADSVKGRFTISRDNAKNTVYLQMNSLQPEDTAVYYCYAVYYRTVLKIGVYEYDYWGQGTQVTVSS” it is “low polyreactivity”.
Regarding “QVQLEESGGGLVQAGGSLRLSCASYGSTFTYNAMGLYIQAPAKERELVAVIRPGGTTNYADSVKGRFTISRDNAKNSVYLQMNSLKPVDTAVYYCAADVRRYDGYDYWGQGTQVTVSS”, the “polyreactivity (PSR sort gate)” value is “low polyreactivity”.
The result for “QVQLVESGGGLVQAGGSLRLSCAASGRIFQKYAMGWYRQAPGKERELVAAISSGDSTYADSVKGRFTISRDNAKNTVYLQMNSLKPEDTAVYYCNREVPESQGFITPDGYCGQGTQVTVSS” reads “low polyreactivity”.
